T1: PBP1A (E. coli, UniProt P02918 1-850, NT647 RED-NHS dye on amines (fl-PBP1A))
T1 sequence (looked up): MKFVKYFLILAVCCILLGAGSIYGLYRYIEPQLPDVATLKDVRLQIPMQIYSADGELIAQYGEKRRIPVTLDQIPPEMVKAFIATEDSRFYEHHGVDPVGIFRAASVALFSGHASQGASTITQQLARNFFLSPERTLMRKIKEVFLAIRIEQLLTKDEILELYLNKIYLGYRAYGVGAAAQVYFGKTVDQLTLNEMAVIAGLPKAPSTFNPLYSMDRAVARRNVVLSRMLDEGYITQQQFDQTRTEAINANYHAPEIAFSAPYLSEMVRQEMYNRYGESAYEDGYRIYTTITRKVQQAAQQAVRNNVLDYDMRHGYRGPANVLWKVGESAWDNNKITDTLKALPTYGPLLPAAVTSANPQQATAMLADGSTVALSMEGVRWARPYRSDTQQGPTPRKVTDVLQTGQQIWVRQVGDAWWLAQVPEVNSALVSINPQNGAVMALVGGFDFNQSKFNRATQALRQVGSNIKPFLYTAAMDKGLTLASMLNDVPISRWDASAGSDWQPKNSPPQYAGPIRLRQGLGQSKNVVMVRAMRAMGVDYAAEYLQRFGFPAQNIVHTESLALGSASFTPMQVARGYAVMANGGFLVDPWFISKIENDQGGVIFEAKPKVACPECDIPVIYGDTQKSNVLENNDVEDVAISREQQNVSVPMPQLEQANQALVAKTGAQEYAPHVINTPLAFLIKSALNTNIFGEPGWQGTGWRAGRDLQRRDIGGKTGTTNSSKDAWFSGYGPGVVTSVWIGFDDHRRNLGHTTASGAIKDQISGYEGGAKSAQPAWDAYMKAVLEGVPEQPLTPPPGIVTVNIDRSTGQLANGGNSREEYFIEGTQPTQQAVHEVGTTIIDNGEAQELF

T2: MepM (E. coli, UniProt P0AFS9 41-440)
T2 sequence (looked up): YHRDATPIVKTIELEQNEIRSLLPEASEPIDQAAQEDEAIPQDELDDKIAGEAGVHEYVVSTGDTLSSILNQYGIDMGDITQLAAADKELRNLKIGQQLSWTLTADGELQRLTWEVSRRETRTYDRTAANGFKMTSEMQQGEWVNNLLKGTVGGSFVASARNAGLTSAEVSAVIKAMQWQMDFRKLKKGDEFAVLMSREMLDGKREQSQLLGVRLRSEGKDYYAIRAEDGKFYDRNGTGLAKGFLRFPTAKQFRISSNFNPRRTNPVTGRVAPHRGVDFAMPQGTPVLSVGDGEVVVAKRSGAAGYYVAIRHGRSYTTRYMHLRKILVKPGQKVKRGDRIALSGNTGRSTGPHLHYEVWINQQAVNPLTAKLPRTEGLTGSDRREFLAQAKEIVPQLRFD

B1: LpoA (natural protein, E. coli, UniProt P45464 27-678, looked up)
chain: CGTHTPDQSTAYMQGTAQADSAFYLQQMQQSSDDTRINWQLLAIRALVKEGKTGQAVELFNQLPQELNDAQRREKTLLAVEIKLAQKDFAGAQNLLAKITPADLEQNQQARYWQAKIDASQGRPSIDLLRALIAQEPLLGAKEKQQNIDATWQALSSMTQEQANTLVINADENILQGWLDLQRVWFDNRNDPDMMKAGIADWQKRYPNNPGAKMLPTQLVNVKAFKPASTNKIALLLPLNGQAAVFGRTIQQGFEAAKNIGTQPVAAQVAAAPAADVAEQPQPQTVDGVASPAQASVSDLTGEQPAAQPVPVSAPATSTAAVSAPANPSAELKIYDTSSQPLSQILSQVQQDGASIVVGPLLKNNVEELLKSNTPLNVLALNQPENIENRVNICYFALSPEDEARDAARHIRDQGKQAPLVLIPRSSLGDRVANAFAQEWQKLGGGTVLQQKFGSTSELRAGVNGGSGIALTGSPITLRATTDSGMTTNNPTLQTTPTDDQFTNNGGRVDAVYIVATPGEIAFIKPMIAMRNGSQSGATLYASSRSAQGTAGPDFRLEMEGLQYSEIPMLAGGNLPLMQQALSAVNNDYSLARMYAMGVDAWSLANHFSQMRQVQGFEINGNTGSLTANPDCVINRNLSWLQYQQGQVVPVS
modifications: NT647 RED-Maleimide dye on cysteines where used as the labelled partner (fl-LpoA)
B2: MepS(C68A) (enzyme, E. coli, UniProt P0AFV4 27-188, looked up)
chain: CSANNTAKNMHPETRAVGSETSSLQASQDEFENLVRNVDVKSRIMDQYADWKGVRYRLGGSTKKGIDASGFVQRTFREQFGLELPRSTYEQQEMGKSVSRSNLRTGDLVLFRAGSTGRHVGIYIGNNQFVHASTSSGVIISSMNEPYWKKRYNEARRVLSRS
B3: PBP4 (native) (enzyme, E. coli, UniProt P24228 21-477, looked up)
chain: ANVDEYITQLPAGANLALMVQKVGASAPAIDYHSQQMALPASTQKVITALAALIQLGPDFRFTTTLETKGNVENGVLKGDLVARFGADPTLKRQDIRNMVATLKKSGVNQIDGNVLIDTSIFASHDKAPGWPWNDMTQCFSAPPAAAIVDRNCFSVSLYSAPKPGDMAFIRVASYYPVTMFSQVRTLPRGSAEAQYCELDVVPGDLNRFTLTGCLPQRSEPLPLAFAVQDGASYAGAILKDELKQAGITWSGTLLRQTQVNEPGTVVASKQSAPLHDLLKIMLKKSDNMIADTVFRMIGHARFNVPGTWRAGSDAVRQILRQQAGVDIGNTIIADGSGLSRHNLIAPATMMQVLQYIAQHDNELNFISMLPLAGYDGSLQYRAGLHQAGVDGKVSAKTGSLQGVYNLAGFITTASGQRMAFVQYLSGYAVEPADQRNRRIPLVRFESRLYKDIYQNN
B4: PBP7 (enzyme, E. coli, UniProt P0AFI5 26-310, looked up)
chain: KTAAATTASQPEIASGSAMIVDLNTNKVIYSNHPDLVRPIASISKLMTAMVVLDARLPLDEKLKVDISQTPEMKGVYSRVRLNSEISRKDMLLLALMSSENRAAASLAHHYPGGYKAFIKAMNAKAKSLGMNNTRFVEPTGLSVHNVSTARDLTKLLIASKQYPLIGQLSTTREDMATFSNPTYTLPFRNTNHLVYRDNWNIQLTKTGFTNAAGHCLVMRTVINNKPVALVVMDAFGKYTHFADASRLRTWIETGKVMPVPAAALSYKKQKAAQMAAAGQTAQND
modifications: NT647 RED-NHS dye on amines where used as the labelled partner (fl-PBP7)
B5: His-PBP7 (enzyme, E. coli, UniProt P0AFI5 26-310, looked up)
chain: B4 chain
B6: NlpI (soluble version, residues 19-294) (natural protein, E. coli, UniProt P0AFB1 19-294, looked up)
chain: CSNTSWRKSEVLAVPLQPTLQQEVILARMEQILASRALTDDERAQLLYERGVLYDSLGLRALARNDFSQALAIRPDMPEVFNYLGIYLTQAGNFDAAYEAFDSVLELDPTYNYAHLNRGIALYYGGRDKLAQDDLLAFYQDDPNDPFRSLWLYLAEQKLDEKQAKEVLKQHFEKSDKEQWGWNIVEFYLGNISEQTLMERLKADATDNTSLAEHLSETNFYLGKYYLSLGDLDSATALFKLAVANNVHNFVEHRYALLELSLLGQDQDDLAESDQQ
modifications: NT647 RED-NHS dye on amines where used as the labelled partner (fl-NlpI)
B7: tagless NlpI (natural protein)
chain: B6 chain

Tests used:
[1] = biological target: preformed NlpI-PBP4 complex (E. coli, UniProt P0AFB1 19-294; P24228 21-477); assay: MST
[2] = biological target: T1, PBP1A; assay: MST
[3] = biological target: B3; assay: MST
[4] = biological target: B3; assay: pull-down
[5] = biological target: the molecule itself; assay: AUC
[6] = biological target: the molecule itself; assay: MST
[7] = biological target: T2, MepM; assay: MST
[8] = biological target: B5; assay: pull-down

Binder: B1
binding result [1]: binds

Binder: B2
Kd [2]: 91 nM

Binder: B3
Kd [2]: 106 nM

Binder: B4
Kd [2]: 101 nM
binding result [3]: binds

Binder: B5
binding result [4]: binds

Binder: B6
stoichiometry N [5]: 2
Kd [3]: 177 nM
Kd [6]: 126 nM
Kd [7]: 152 nM

Binder: B7
binding result [8]: binds

From publication doi:10.1101/609503 (bioRxiv, 2019)
